The values that follow come from PMC7528653 (Nucleic Acids Research, 2020).

Assay [1] deals with T1, MSL1 (untagged, subunit of the DCCcore) (Drosophila melanogaster, UniProt P50535 1-1039).
T1 sequence: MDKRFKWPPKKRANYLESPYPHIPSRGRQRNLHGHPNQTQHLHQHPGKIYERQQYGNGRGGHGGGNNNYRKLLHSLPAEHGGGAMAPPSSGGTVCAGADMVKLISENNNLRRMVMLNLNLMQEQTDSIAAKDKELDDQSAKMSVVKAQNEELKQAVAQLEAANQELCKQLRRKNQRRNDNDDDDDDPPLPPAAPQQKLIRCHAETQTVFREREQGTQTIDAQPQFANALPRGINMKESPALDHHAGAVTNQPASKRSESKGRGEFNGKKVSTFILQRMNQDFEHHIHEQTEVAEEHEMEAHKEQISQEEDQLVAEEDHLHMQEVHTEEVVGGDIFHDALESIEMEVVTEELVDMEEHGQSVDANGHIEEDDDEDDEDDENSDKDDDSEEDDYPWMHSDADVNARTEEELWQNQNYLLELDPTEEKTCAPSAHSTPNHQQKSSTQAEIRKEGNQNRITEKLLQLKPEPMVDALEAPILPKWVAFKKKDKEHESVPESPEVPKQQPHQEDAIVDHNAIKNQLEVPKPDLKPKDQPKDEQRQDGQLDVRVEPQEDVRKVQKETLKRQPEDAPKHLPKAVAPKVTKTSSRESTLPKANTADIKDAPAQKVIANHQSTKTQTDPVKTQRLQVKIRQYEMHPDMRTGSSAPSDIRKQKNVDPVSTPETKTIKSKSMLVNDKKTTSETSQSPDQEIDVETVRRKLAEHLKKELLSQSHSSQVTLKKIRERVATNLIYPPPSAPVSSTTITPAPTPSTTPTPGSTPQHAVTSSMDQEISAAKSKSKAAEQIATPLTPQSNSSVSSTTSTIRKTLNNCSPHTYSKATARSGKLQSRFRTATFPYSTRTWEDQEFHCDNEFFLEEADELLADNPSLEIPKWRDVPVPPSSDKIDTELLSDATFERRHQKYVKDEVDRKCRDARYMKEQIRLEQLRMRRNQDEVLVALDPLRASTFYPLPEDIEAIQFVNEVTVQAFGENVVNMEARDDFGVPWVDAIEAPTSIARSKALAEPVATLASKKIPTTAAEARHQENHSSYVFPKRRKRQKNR
As to the kind of experiment: co-IP.

Assay [2] deals with MLE-FLAG (maleless DExH helicase, wild-type) (Drosophila melanogaster, UniProt P24785 1-1293). Kind of assay: co-IP.

B1: MSL3 with an N-terminal hexahistidine tag (natural protein)
chain: MTELRDETPLFHKGEIVLCYEPDKSKARVLYTSKVLNVFERRNEHGLRFYEYKIHFQGWRPSYDRCVRATVLLKDTEENRQLQRELAEAAKLQIRGDYSYKGTPDKPSAKKKRGGKAAHVEEPIVVPMDTGHLEAEHEMAPTPRAAGNRTRDNSGGKRKEKPPSGDGRLKGNRGRQTETFYNNAINDVSVYNHVPQEDRIMMRVSERLRELIEYDRNMIKVLGKQHALPARVPIVTIMENFVKQQAVELAISIKQDSSRARNTQSRNARMEREYDRVMSTVCMLKEVVDGLRIYFEFHVDDHLLYTEEKEYVHNYLTDDNMRNCSLILNKSYEYINPSGDTELIGLDGTPVVEGSGDTNGQIGVINIGGPEYEKQLQKCLLYIVTASGKNTAQAYERTSPYTAAYKLPVEMRGFLNETFKWRLLSAESPPEKSMVFGAPHLVRLMIKMPMFLNASPISNKKLEDLLPHLDAFINYLENHREWFDRENFVNSTALPQEDLQRELLDSLDGIAA
With B1, in assay [1], the binding result is “binds”.

B2: DCC DNA-binding module (MSL2-FLAG and MSL1 Δ865-1039) (complex)
chain 1: MAQTAYLKVTRIAMRSASNLSKRRVEELNSGLGELRQLLSCVVCCQLLVDPYSPKGKRCQHNVCRLCLRGKKHLFPSCTQCEGCSDFKTYEENRMMAAQLLCYKTLCVHLLHSALFGELAGMRPQVARELVPRIKLPPKTTQEFIREGSNISDTFDIFLPQPDLPFLKDMPTSLPAETPPTSAVTTPELPYDHHLNISDIEAEAAATAEQGHFSPLPLLPTGSRMGMLSHAGQIVIATESSESGFMDQAWTDQVDLSGTVSVSKYTNSGNNFAVSYVMPTSATTKFDPQELQIGQVVQMADSTQLAVLAAVEETVETSTQLTVLSTTVEETVETSTQLEVLTSAEEPNEISDQLANLQVEESDEALVEETVEEAEGTSIPSEVVAEHMEEDQHLDVHTSQSPTQTEMEEAVEEHVATKTQLGHVQTELQDAESLQKDFEDAKAAAEEAKEKEKDLHAISAELQKEDSDEPTLKRKRTRTLKASQAAKIEPVPSEVKTKVQSGKGALRRIRGKDKEEKVKPPKPKCRCGISGSSNTLTTCRNSRCPCYKSYNSCAGCHCVCCKNPHKEDYVESDEDDDLEDFEMPKDVPEPMTQSEEPVVAEPRQEENSMAPPDSSAPISLVPLNNLQQSQHPLVLVQNEKGEYQGFNIFQGSKPLDPVTVGFTIRVQLQHTDGFGSLPQYAYIMPTIDPPNPPAPSLSPPPPPAPDREVIEPPAKKFRTSRTRRGRANFSALDTVDELVSGGSRSNSAAGDRSSATDNAHSLFEEIMSGSDDL
chain 2: MDKRFKWPPKKRANYLESPYPHIPSRGRQRNLHGHPNQTQHLHQHPGKIYERQQYGNGRGGHGGGNNNYRKLLHSLPAEHGGGAMAPPSSGGTVCAGADMVKLISENNNLRRMVMLNLNLMQEQTDSIAAKDKELDDQSAKMSVVKAQNEELKQAVAQLEAANQELCKQLRRKNQRRNDNDDDDDDPPLPPAAPQQKLIRCHAETQTVFREREQGTQTIDAQPQFANALPRGINMKESPALDHHAGAVTNQPASKRSESKGRGEFNGKKVSTFILQRMNQDFEHHIHEQTEVAEEHEMEAHKEQISQEEDQLVAEEDHLHMQEVHTEEVVGGDIFHDALESIEMEVVTEELVDMEEHGQSVDANGHIEEDDDEDDEDDENSDKDDDSEEDDYPWMHSDADVNARTEEELWQNQNYLLELDPTEEKTCAPSAHSTPNHQQKSSTQAEIRKEGNQNRITEKLLQLKPEPMVDALEAPILPKWVAFKKKDKEHESVPESPEVPKQQPHQEDAIVDHNAIKNQLEVPKPDLKPKDQPKDEQRQDGQLDVRVEPQEDVRKVQKETLKRQPEDAPKHLPKAVAPKVTKTSSRESTLPKANTADIKDAPAQKVIANHQSTKTQTDPVKTQRLQVKIRQYEMHPDMRTGSSAPSDIRKQKNVDPVSTPETKTIKSKSMLVNDKKTTSETSQSPDQEIDVETVRRKLAEHLKKELLSQSHSSQVTLKKIRERVATNLIYPPPSAPVSSTTITPAPTPSTTPTPGSTPQHAVTSSMDQEISAAKSKSKAAEQIATPLTPQSNSSVSSTTSTIRKTLNNCSPHTYSKATARSGKLQSRFRTATFPYSTRTWEDQEFHCDNEFFLEEADELLADNP
As to B2, the binding result in assay [2] is “binds”.
